Results reported in the supplement of paper PMC12764529.
± gives the half width of the 95% confidence interval.

Assay: folding stability dG unfold from chymotrypsin proteolysis; higher = more stable
How it was run: (§1)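 Sequencing followed digestion of designed mini-proteins with trypsin and chymotrypsin, each at 11 concentrations in threefold dilutions together with a no-protease condition. The mini-proteins were under 80 residues, had no cysteine, sat in a PA-tagged cDNA display construct, and were kept only if AlphaFold2 dimer inter-PAE was above 15. From the counts, Bayesian fitting gave K50, and unfolding free energy was derived against a sequence-predicted unfolded-state K50 and a shared folded-state K50, per protease or combined.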

| Sequence | folding stability dG unfold [kcal/mol] |
| --- | --- |
| SAKITKIEINEDGTLTITIEVELPEGMEADELVIFVEVDGKIYEATIKKDGTVEIKLKNIKDLKIYIFKKSA [r9_722_TrROS_Hall] | 5.04 ± 0.12 |
| SAMLSPAEIKRPRLLEIIETIKKLGNFSVDIKRLPGDGDVKVKIELDPNKIEEAAKITGIPLSEIKKLVSAG [r14_688_JUSTAS] | 0.748 ± 0.1 |
| KPKLTIEYDEETGKFTITLPDGRKIEIELKKDGTVVRIRVKENGKEREIELTLDELKALLDNKDVTIEIIPS [r1_18_TrROS_Hall] | 3.45 ± 0.2 |
| SAGGKKEKKLTLLFSDPNGKLSLVIEVYKKKDGSYWAVFYNPETGKKEEYKFKSLEELEEAVKELLKKSAGG [r13_857_TrMRF] | 4.579 ± 0.045 |
| SMETPPEELVERVREYLASQGYTVTSVEVTPLPDGSVRVEVTATPPDASTTLTITVTVPPDGTVVVEVTAQS [r1_460_JUSTAS] | 5.26 ± 0.12 |
| SAEKLKKILENIEKVEFDEETGEVYITVKSVEEAEKALKELFPDVEIEKDEDGNYRFRIRVEKLPEELLSAG [r14_115_TrROS_Hall] | 4.68 ± 0.082 |
| SAMRFVVRVEGDLEEVERALREEFDFEMEAEREEDGRLVVVVEAEPEELERLVEALERLPDFPVEIEPESAG [r14_521_TrMRF] | 0.716 ± 0.1 |
| SAGGSAGGMTPVVVTVTITLPNGEVVEYRVPVAPDELEAAAEAVKEPLEAQGVDVEVEIEAVAASAGGSAGG [r6_721_JUSTAS] | 1.5 ± 0.033 |
| SAGGSPGIKIEIWFMIMFPVKPDPDNGKPRWYMIMVSPKMWYDPEPGGMQIEIDINIMPLGDPEAFSAGGSA [r2_489_TrROS] | 3.6 ± 0.038 |
| SAGGGMEPKPVEVTLTIPKGTVTPEDKVPVSTIAKLLGIPEDTEVTVEKITPVPNSDTELVTLTIVTSAGGS [r16_165_JUSTAS] | 0.571 ± 0.074 |
| SAGGSAGGSAGGSPNIYYTSGPFALVVTLPNGTKIVIPGSNIENLKNYNLISVEVVSTDSAGGSAGGSAGGS [r4_348_TrMRF] | 1.81 ± 0.1 |
| SAGGSAGGSANGWVFMIHFNIEQEPVPAEELGMPPGDPGYEDMYVIKIKSISFFWVPAGDFSAGGSAGGSAG [r3_488_TrROS] | 4.72 ± 0.12 |
| SAGGSAGGSAGEEVILRIKVKLKNGEERTIEINMTLDELLAELPENVTEIKIEAIPKEDLSAGGSAGGSAGG [r11_596_TrROS_Hall] | 1.54 ± 0.017 |
| SAGGPVNKKELVTVPVYYDPETGKFVVKATYPTRPITVPTDETDPVEALARFGTLLEKVTGKPIDTFVGSAG [r5_251_TrMRF] | 0.414 ± 0.098 |
| SGGMEKTENGNVRPVPLPTTVVKETPPEVSPEEAKERVEKELKEKGYKNVKVTTSYDPSTNLVTITVTVESA [r9_1124_JUSTAS] | 0.624 ± 0.076 |
| SAGGSAGGSAGGMKTIEITNADGSKATAELLPDGWVKIYFEETGEEKTLPAKDLTITPPSAGGSAGGSAGGS [r10_289_TrROS_Hall] | 0.5 ± 0.013 |
| SAGGKKITVTVTRERTEDGTLRVTVTLRDEETGRTLTLTLTVPRENEEEVEEAAKRLAEELAADPELESAGG [r13_968_TrROS_Hall] | 4.72 ± 0.12 |
| SVEEFRELLPDAVIEAEPLSPDRLLIRLYVPEDPEKLNPLAERVRELAEEIERETGLPVLIEIIPVPPESSA [r9_1099_TrMRF] | 1.27 ± 0.014 |
| SAGGTIMIPFDTPEQAKDIREAAKDGEPIEIRPPDGKPIKFKIKDVEVDPNSGWLVIKIPNGRTIPISAGGS [r16_254_TrROS] | 0.151 ± 0.15 |
| SAGGSAGGSATPPDSSVSVKVEITVGGEKKLVTATLTTLPNGTTSLTLNFDIPPDKYELSLVSAGGSAGGSA [r18_428_JUSTAS] | 2.74 ± 0.09 |
| SMKKGEKIKIEKKKDGTLKITLPDGKEITVPLKDIKIEIKDGKIKITVFKDGKKIAEFELKIKKKKKKKKSA [r9_901_TrROS_Hall] | 2.64 ± 0.11 |

Assay: folding stability dG unfold from trypsin proteolysis; higher = more stable
How it was run: as §1

| Sequence | folding stability dG unfold [kcal/mol] |
| --- | --- |
| SAMLVVELEVDLPELKYMTPEEAEEIAEALAVEAAKELFPESDVKVKEVVVEPEPETGKLKVTVVLENESAG [r14_310_TrMRF] | 2.18 ± 0.13 |
| SAGGSAGGSAGNWIIRIRWPGKSIMFVLPEGMNVDEIATNIQDEFNYPIDIEVIPPGQPISAGGSAGGSAGG [r11_805_TrROS] | 2.15 ± 0.071 |
| SVSSKISKVVSETVEDDKRTVTIEVNVPSPVVEIYDSSGKVIKTVPLGKKTTITVTTDPKGTSVSVKVLNSA [r9_917_JUSTAS] | 0.46 ± 0.12 |
| SAGGSAGGSAGPEKMRIEDIEHERNPEDGRHTVKIKIPNGPDITFQFTDPEDLDDFKLEVSAGGSAGGSAGG [r11_711_TrROS] | -0.274 ± 0.079 |
| SNFPPGQQIKFTFRLPDNGMKIKIEVHVHPDGYVQVRMERENPDNGKRVKITFYVPGPTLDEILDFIEQFSA [r9_618_TrROS] | 2.97 ± 0.09 |
| SAGGSAGGSSNGITLKKPGGIEIKLPKPPSVKPVTVTTTFVFTTPDGKLVFVPKTTTLPPSLLSAGGSAGGS [r12_1027_JUSTAS] | 1.59 ± 0.15 |
| SAMKEMTAEELAKKLEEELRKLFPDVEIKVEIVEVKEDYVVIKVEITVRLKKPDGKEVEFKLELVLKVDSAG [r14_187_TrROS_Hall] | 3.1 ± 0.41 |
| SAGGSAGGLYIVRIEIYHPENGKEWTIMIPVPSEEEAKEEAEELAKTFAKKNGYKIEVEVFPLPSAGGSAGG [r6_787_TrROS] | 1.53 ± 0.033 |
| SAGGSAKIKITIEYDEETGEVRIKIEVDGKEYEITLSREELANMTIEELAKKLGVEIEEVEIYPVPSAGGSA [r15_801_TrROS_Hall] | 3.35 ± 0.24 |
| SAGGSKMEPGPVKIKVTDGGEEHTFDFQVSVMPDPDGRPMIMFSFPDGNPLSIPLDDAEKITDIEVSAGGSA [r2_297_TrROS] | 0.322 ± 0.11 |
